Laboratory results published in PMC4132743 (Nucleic Acids Research, 2014).
Positions count from the first letter of the chain named. Numbers in names are those of the source.

Experiments:
DnaT (wt, full length) [1] = target: T1, DnaT (wt, full length) (Escherichia coli K12, UniProt P0A8J2 1-179); experiment: fluorescence polarization; apparent; Hill h=1.8±0.2; Buffer A: 20 mM Tris-HCl pH 7.5, 40 mM NaCl, 5% v/v glycerol, 20 C; FPA 200 nM 5'-FAM DNA, Hill fit; EMSA 30 min at 20 C, gels in 0.5x TBE at 4 C; settings: protein: recombinant; tags: His-MBP removed by TEV; label: 5'-FAM
T1 sequence: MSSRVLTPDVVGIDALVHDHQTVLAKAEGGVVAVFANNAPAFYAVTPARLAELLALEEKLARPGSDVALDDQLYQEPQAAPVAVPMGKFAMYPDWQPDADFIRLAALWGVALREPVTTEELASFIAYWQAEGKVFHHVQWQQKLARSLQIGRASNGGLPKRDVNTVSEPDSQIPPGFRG

DnaT (wt, full length) [2] = target: T1, DnaT (wt, full length); experiment: fluorescence polarization; apparent; Hill h=3.6±0.3; Buffer A: 20 mM Tris-HCl pH 7.5, 40 mM NaCl, 5% v/v glycerol, 20 C; FPA 200 nM 5'-FAM DNA, Hill fit; EMSA 30 min at 20 C, gels in 0.5x TBE at 4 C; settings: protein: recombinant; tags: His-MBP removed by TEV; label: 5'-FAM
DnaT84-179 = target: T2, DnaT84-179 (Escherichia coli K12, UniProt P0A8J2 84-179); experiment: fluorescence polarization; apparent; Hill h=2.7±0.2; Buffer A: 20 mM Tris-HCl pH 7.5, 40 mM NaCl, 5% v/v glycerol, 20 C; FPA 200 nM 5'-FAM DNA, Hill fit; EMSA 30 min at 20 C, gels in 0.5x TBE at 4 C; settings: protein: recombinant; tags: His-MBP removed by TEV; chain copies: 2; label: 5'-FAM
T2 sequence: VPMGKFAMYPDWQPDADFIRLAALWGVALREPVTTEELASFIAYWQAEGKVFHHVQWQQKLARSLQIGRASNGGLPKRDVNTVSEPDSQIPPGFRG

DnaT84-153 = target: T3, DnaT84-153 (Escherichia coli K12, UniProt P0A8J2 84-153); experiment: fluorescence polarization; apparent; Hill h=2.1±0.2; Buffer A: 20 mM Tris-HCl pH 7.5, 40 mM NaCl, 5% v/v glycerol, 20 C; FPA 200 nM 5'-FAM DNA, Hill fit; EMSA 30 min at 20 C, gels in 0.5x TBE at 4 C; settings: protein: recombinant; tags: His-MBP removed by TEV; label: 5'-FAM
T3 sequence: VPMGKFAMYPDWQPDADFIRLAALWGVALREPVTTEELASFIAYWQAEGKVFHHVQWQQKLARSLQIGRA

DnaT (wt, full length) [3] = target: T1, DnaT (wt, full length); experiment: fluorescence polarization; apparent; Hill h=2.3±0.3; Buffer A: 20 mM Tris-HCl pH 7.5, 40 mM NaCl, 5% v/v glycerol, 20 C; FPA 200 nM 5'-FAM DNA, Hill fit; EMSA 30 min at 20 C, gels in 0.5x TBE at 4 C; settings: protein: recombinant; tags: His-MBP removed by TEV; label: 5'-FAM
DnaT (wt, full length) [4] = target: T1, DnaT (wt, full length); experiment: fluorescence polarization; apparent; Hill h=1.8±0.3; Buffer A: 20 mM Tris-HCl pH 7.5, 40 mM NaCl, 5% v/v glycerol, 20 C; FPA 200 nM 5'-FAM DNA, Hill fit; EMSA 30 min at 20 C, gels in 0.5x TBE at 4 C; settings: protein: recombinant; tags: His-MBP removed by TEV; label: 5'-FAM
[5] = target: the molecule itself; experiment: SEC; Superdex 75 or Superdex 200 10/300 GL in buffer A (20 mM Tris-HCl pH 7.5, 40 mM NaCl, 5% glycerol), against molecular mass standards
DnaT (wt, full length) [6] = target: T1, DnaT (wt, full length); experiment: EMSA; 20 uM DNA; Buffer A: 20 mM Tris-HCl pH 7.5, 40 mM NaCl, 5% v/v glycerol, 20 C; FPA 200 nM 5'-FAM DNA, Hill fit; EMSA 30 min at 20 C, gels in 0.5x TBE at 4 C; settings: protein: recombinant; tags: His-MBP removed by TEV
DnaT (wt, full length) [7] = target: T1, DnaT (wt, full length); experiment: fluorescence polarization; apparent; Hill h=1.6±0.2; Buffer A: 20 mM Tris-HCl pH 7.5, 40 mM NaCl, 5% v/v glycerol, 20 C; FPA 200 nM 5'-FAM DNA, Hill fit; EMSA 30 min at 20 C, gels in 0.5x TBE at 4 C; settings: protein: recombinant; tags: His-MBP removed by TEV; label: 5'-FAM
DnaT (wt, full length) [8] = target: T1, DnaT (wt, full length); experiment: fluorescence polarization; apparent; Hill h=2.0±0.2; Buffer A: 20 mM Tris-HCl pH 7.5, 40 mM NaCl, 5% v/v glycerol, 20 C; FPA 200 nM 5'-FAM DNA, Hill fit; EMSA 30 min at 20 C, gels in 0.5x TBE at 4 C; settings: protein: recombinant; tags: His-MBP removed by TEV; label: 5'-FAM
DnaT (wt, full length) [9] = target: T1, DnaT (wt, full length); experiment: fluorescence polarization; apparent; Hill h=2.3±0.2; Buffer A: 20 mM Tris-HCl pH 7.5, 40 mM NaCl, 5% v/v glycerol, 20 C; FPA 200 nM 5'-FAM DNA, Hill fit; EMSA 30 min at 20 C, gels in 0.5x TBE at 4 C; settings: protein: recombinant; tags: His-MBP removed by TEV; label: 5'-FAM
DnaT (wt, full length) [10] = target: T1, DnaT (wt, full length); experiment: fluorescence polarization; apparent; Hill h=2.5±0.6; Buffer A: 20 mM Tris-HCl pH 7.5, 40 mM NaCl, 5% v/v glycerol, 20 C; FPA 200 nM 5'-FAM DNA, Hill fit; EMSA 30 min at 20 C, gels in 0.5x TBE at 4 C; settings: protein: recombinant; tags: His-MBP removed by TEV; label: 5'-FAM
[11] = target: the molecule itself; experiment: negative-staining electron microscopy; purified DnaT alone in buffer A (also after DNase I), 0.7% uranyl formate, FEI Tecnai F20

Work on AAAAAAAAAAAAAAAAAAAAAAAAAAAAAA (ssDNA) [5F-dA30] yielded a Kd (DnaT (wt, full length) [1]) of 39.2 ± 3.85 µM.

TTTTTTTTTTTTTTTTTTTTTTTTTTTTTT (ssDNA) [5F-dT30] gave a Kd (DnaT (wt, full length) [2]) of 12.9 ± 0.57 µM, a Kd (DnaT84-179) of 9.87 ± 0.32 µM and a Kd (DnaT84-153) of 27.1 ± 2.3 µM.

In the case of CACACACACACACACACACACACACACACA (ssDNA) [5F-d(CA)15], the Kd (DnaT (wt, full length) [3]) is reported as 31.5 ± 3.6 µM.

For TGGTGGTGGTGGTGGTGGTGGTGGTGGTGG (ssDNA) [5F-d(TGG)10], the Kd (DnaT (wt, full length) [4]) was 2.76 ± 0.28 µM.

B1: DnaT^84–153 (N- and C-terminal-truncated DnaT, recombinant fragment) (domain or fragment, Escherichia coli (strain K12), UniProt P0A8J2 84-153, looked up)
chain: T3 sequence
notes: Dimer in solution by size-exclusion chromatography (see the N row); source: E. coli BL21 (DE3), purified (Ni-chelating resin, TEV digestion, HisTrap HP, HiTrap DEAE FF, Superdex 200); not shown: His, N-terminal, cleaved; MBP, N-terminal, cleaved
With B1 the “stoichiometry N” value [5] was 2.

TTTTTTTTTT (ssDNA) [dT10]: binds (DnaT (wt, full length) [6]).

For TGTGTGTGTGTGTGTGTGTGTGTGTGTGTG (ssDNA) [5F-d(TG)15], the Kd (DnaT (wt, full length) [7]) was 1.3 ± 0.11 µM.

B2: DnaT^84–179 (N-terminal-truncated DnaT) (domain or fragment, Escherichia coli (strain K12), UniProt P0A8J2 84-179, looked up)
chain: T2 sequence
notes: as for B1
With B2 the “stoichiometry N” value [5] was 2.

With TTTTTTTTTTTTTTT (ssDNA) [5F-dT15] the Kd (DnaT (wt, full length) [8]) was 16.2 ± 1.63 µM.

TGGGTGGGTGGGTGGGTGGGTGGGTGGG (ssDNA) [5F-d(TGGG)7] gave a Kd (DnaT (wt, full length) [9]) of 0.597 ± 0.02 µM.

AAAAAAAAAAAAAAA (ssDNA) [5F-dA15] showed a Kd (DnaT (wt, full length) [10]) of 46.7 ± 6.87 µM.

B3: DnaT F135A (natural protein, Escherichia coli (strain K12), UniProt P0A8J2 1-179, looked up)
chain: T1 sequence with F135A
notes: E. coli K12 DnaT, made from the wt-DnaT vector by site-directed mutagenesis; source: E. coli BL21 (DE3), purified as the wild type; not shown: His, N-terminal, cleaved; MBP, N-terminal, cleaved
B3: binds [5].

B4: DnaT (full-length, wild type) (natural protein, Escherichia coli (strain K12), UniProt P0A8J2 1-179, looked up)
chain: T1 sequence
notes: E. coli K12 DnaT, amplified from genomic DNA; also called wt-DnaT; DnaT-FL; source: E. coli BL21 (DE3), purified (Ni-chelating resin, TEV digestion, HisTrap HP, HiTrap DEAE FF, Superdex 200); not shown: His, N-terminal, cleaved; MBP, N-terminal, cleaved
B4: binds [11].

B5: DnaT Y127A (natural protein, Escherichia coli (strain K12), UniProt P0A8J2 1-179, looked up)
chain: T1 sequence with Y127A
notes: as for B3
B5: binds [5].

B6: DnaT Y127A/W128A double mutant (natural protein, Escherichia coli (strain K12), UniProt P0A8J2 1-179, looked up)
chain: T1 sequence with Y127A, W128A
notes: as for B3
B6: binds [5].

B7: DnaT K143A (natural protein, Escherichia coli (strain K12), UniProt P0A8J2 1-179, looked up)
chain: T1 sequence with K143A
notes: as for B3
B7: binds [5].

B8: DnaT W128A (natural protein, Escherichia coli (strain K12), UniProt P0A8J2 1-179, looked up)
chain: T1 sequence with W128A
notes: as for B3
B8: binds [5].

B9: DnaT R146A (natural protein, Escherichia coli (strain K12), UniProt P0A8J2 1-179, looked up)
chain: T1 sequence with R146A
notes: as for B3
B9: binds [5].

B10: DnaT K133A (natural protein, Escherichia coli (strain K12), UniProt P0A8J2 1-179, looked up)
chain: T1 sequence with K133A
notes: as for B3
B10: binds [5].
